B1: Iron-sulfur cluster assembly factor IBA57, mitochondrial (Homo sapiens), Q5T440 (parent)
chain: MATAALLRGATPGRGGPVWRWRLRAAPRCRLAHSSCSPGGDPTAGAAWACFRLDGRTLLRVRGPDAAPFLLGLLTNELPLPSPAAAGAPPAARAGYAHFLNVQGRTLYDVILYGLQEHSEVSGFLLECDSSVQGALQKHLALYRIRRKVTVEPHPELRVWAVLPSSPEACGAASLQERAGAAAILIRDPRTARMGWRLLTQDEGPALVPGGRLGDLWDYHQHRYLQGVPEGVRDLPPGVALPLESNLAFMNGVSFTKGCYIGQELTARTHHMGVIRKRLFPVRFLDPLPTSGITPGATVLTASGQTVGKFRAGQGNVGLALLWSEKIKGPLHIRASEGAQVALAASVPDWWPTVSK
partner: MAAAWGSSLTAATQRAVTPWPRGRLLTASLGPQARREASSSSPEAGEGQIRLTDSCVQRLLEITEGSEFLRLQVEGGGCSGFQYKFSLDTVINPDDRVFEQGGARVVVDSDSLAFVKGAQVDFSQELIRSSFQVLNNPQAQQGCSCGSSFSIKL

Variants of: B1
Settings: with isca2_human ISCA2, Q86U28
In the case of MATAALLRGATPGRGGPVWRWRLRAAPRCRLAHSSCSPGGDPTAGAAWACFRLDGRTLLRVRGPDAAPFLLGLLTNELPLPSPAAAGAPPAARAGYAHFLNVQGRTLYDVILYGLQEHSEVSGFLLECDSSVQGALQKHLALYRIWRKVTVEPHPELRVWAVLPSSPEACGAASLQERAGAAAILIRDPRTARMGWRLLTQDEGPALVPGGRLGDLWDYHQHRYLQGVPEGVRDLPPGVALPLESNLAFMNGVSFTKGCYIGQELTARTHHMGVIRKRLFPVRFLDPLPTSGITPGATVLTASGQTVGKFRAGQGNVGLALLWSEKIKGPLHIRASEGAQVALAASVPDWWPTVSK [R146W], the “effect of a mutation on the interaction” value is reported as “disrupting interaction strength”.

— IntAct's records for PubMed 31831856
